Where two headings read alike, the source gives them in different places. Ends that are not written are not given here.
Tests used:
[1] = target: T1, TAMRA-labeled effector peptide cs074B (5(6)-TAMRA label coupled on resin after synthesis); experiment: fluorescence polarization
T1 peptide: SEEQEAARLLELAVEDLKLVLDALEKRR

[2] = target: T2, TAMRA-labeled effector peptide cs221B (5(6)-TAMRA label coupled on resin after synthesis); experiment: fluorescence polarization
T2 peptide: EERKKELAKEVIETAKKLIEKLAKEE

[3] = target: T3, TAMRA-labeled effector peptide cs201B (5(6)-TAMRA label coupled on resin after synthesis); experiment: fluorescence polarization
T3 peptide: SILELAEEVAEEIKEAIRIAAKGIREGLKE

[4] = target: T1, TAMRA-labeled effector peptide cs074B; experiment: fluorescence polarization
[5] = target: T2, TAMRA-labeled effector peptide cs221B; experiment: fluorescence polarization
[6] = target: T4, TAMRA-labeled effector peptide js007B (5(6)-TAMRA label coupled on resin after synthesis); experiment: fluorescence polarization
T4 peptide: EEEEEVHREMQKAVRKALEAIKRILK

[7] = target: cs221-V111L-A114T DEER site pair 1; experiment: fluorescence polarization; MTSL-labeled, site pair 1

B1: hinge cs074 (designed binder)
chain: MSGDEEVQEAVERAEELREEAEELIKKARKTGDPELLRKALEALKEAVRAVKEAIKRNPDNEEAVKTAVRLARELLKVAEELKERAEKTGDPRLLLLAAEAIAWAIEAVFLAAKASENTEGALEAARAAVKLAEVAKRIAKLLQRDAKKEGDPELLKLALRALELAVRAVELAIKENPDNEEAVETAKRLAEELRKVAELLEERAKETGDPELQELAKRAKEVADRARELAKKSNPNNGSGSHHWGSTHHHHHH
Q: With B1 as the binder, how does the Kd [1] read?
A: 1 nM

B2: hinge cs201 (designed binder)
chain: MSGDEEVQEAVERAEELREEAEELIKKARKTGDPELLRKALEALKEAVRAVREAIKRNPDNEEAIKTALRLARELRKVAKELIERARKTGDAELLKKALEAARVAVEAVRLAAEYNKENAEKMAELLVELAELAREVADVLIELAEKTGDPELLKKALEVLEEAVEAVRLAIEYDPDHEEAVETAKRLAEELRKVAELLEERAKETGDPELQELAKRAKEVADRARELAKKSNGSGSHHWGSTHHHHHH
Q: With B2 as the binder, how does the Kd [2] read?
A: 4370 nM

Q: And the Kd [3]?
A: 17 nM

B3: swapped target hinge csw20 (designed binder)
chain: MSGMEEVKELVEKAEELAKEAEELIKKAKKTGNPELLKEALRKLKEAVELAKEAVELDPEHEEAIELLARLAEKLLEVAKLLIELAKKTGNPELLKEALRALKEAREALRLAAEHAPEDAKLLARLAARLAELALLIAKILIELAKKTGNPELLLKALKVLTLAVEAVEAALEADPRLKEAVRVAKELAEVLKELAKLAKELAKKTGNEELKEAAKEAEEVAKRAEELAREAEGSGSHHWGSTHHHHHH
Q: Which Kd [2] does the source give for B3 here?
A: 1500 nM

Q: What about the Kd [4] of the same binder?
A: < 1 nM

Q: What about the Kd [3] of the same binder?
A: 12 nM

B4: hinge cs221 (designed binder)
chain: MSGEMKEEIRRLAEELRERTKDEEVRELAREAARLAEESDDEEVKEVVKKALEAALKSKDEEVIRLLLLAAVLAAAAARSGSPEEKLEIAKKALELAMKSKDEEVIRLALLAAVLAARSDDEEVLKKVKEALEKAMESKDVEEIRERLREAVEVARAGSGSHHWGSTHHHHHH
Q: With B4 as the binder, how does the Kd [5] read?
A: 1.5 nM

B5: hinge js007 (designed binder)
chain: MSGSEEVNERVKQLAEKAKEATDKEEVIEIVKELAELAKQSTDPNLVAEVVRALTEVAKTSTDTELIQEIVKVLLELARRLTDPQLLLEVLKSIAELLKELAEKTGNETAKLAALVAQIAAEVVEMALRAEKTHPGSEIVKLAVELVQKVAEIVLIAAQLMLDKPNSDEVRKVLKEVEKVAREALKALREAKRHPDSQKARDEIKEASQKAEEVKERIERAQEGSGSHHWGSTHHHHHH
Q: How did the Kd [6] turn out when B5 was run?
A: 6 nM

B6: swapped target hinge csw13 (designed binder)
chain: MSGNEEVKKLVEEAKKYLKEAEEYIKKAKKTGNEELLEKALKLLEKALELVKKAIELDPNNKEAIEQAVEIARALNEVAELLIEEAKKTGNEELLEKALEALEAANEALKLAIENNENDKELLAEIAVELAEVGVLLAEVLIEEAKKTGDPELLKLALEVLEAAVEALELALKLDPNNEEAVELAEEAAKLLEEVAKELKEEAKKTGDPELEKLAKEAEELAKRAKELAERQRGSGSHHWGSTHHHHHH
Q: How did the Kd [2] turn out when B6 was run?
A: < 1 nM

Q: Which Kd [7] does the source give for {5(6)‑TAMRA}-EERKKELAKEVIETAKKLIEKLAKEE [TAMRA-labeled peptide cs221B] here?
A: 0.4 nM

Source: US20250236644A1 (published 2025)
